The source of these data is patent US6825167.

In test [1] the target is αvβ3 integrin (human) (UniProt P06756). The test is described as follows: cell-based or functional assay.
Test [2] has the same target. The test is described as follows: attachment of αvβ3-expressing WM35 cells to wells coated at 1 nmole/well, Cell Counting Kit-8. In general terms: Tetrazolium assays rely on reduction of a dye to a coloured formazan, in cell work by metabolically active cells.

UniProt P06756, sequence (P06756 31-1048, chain 1 of 2): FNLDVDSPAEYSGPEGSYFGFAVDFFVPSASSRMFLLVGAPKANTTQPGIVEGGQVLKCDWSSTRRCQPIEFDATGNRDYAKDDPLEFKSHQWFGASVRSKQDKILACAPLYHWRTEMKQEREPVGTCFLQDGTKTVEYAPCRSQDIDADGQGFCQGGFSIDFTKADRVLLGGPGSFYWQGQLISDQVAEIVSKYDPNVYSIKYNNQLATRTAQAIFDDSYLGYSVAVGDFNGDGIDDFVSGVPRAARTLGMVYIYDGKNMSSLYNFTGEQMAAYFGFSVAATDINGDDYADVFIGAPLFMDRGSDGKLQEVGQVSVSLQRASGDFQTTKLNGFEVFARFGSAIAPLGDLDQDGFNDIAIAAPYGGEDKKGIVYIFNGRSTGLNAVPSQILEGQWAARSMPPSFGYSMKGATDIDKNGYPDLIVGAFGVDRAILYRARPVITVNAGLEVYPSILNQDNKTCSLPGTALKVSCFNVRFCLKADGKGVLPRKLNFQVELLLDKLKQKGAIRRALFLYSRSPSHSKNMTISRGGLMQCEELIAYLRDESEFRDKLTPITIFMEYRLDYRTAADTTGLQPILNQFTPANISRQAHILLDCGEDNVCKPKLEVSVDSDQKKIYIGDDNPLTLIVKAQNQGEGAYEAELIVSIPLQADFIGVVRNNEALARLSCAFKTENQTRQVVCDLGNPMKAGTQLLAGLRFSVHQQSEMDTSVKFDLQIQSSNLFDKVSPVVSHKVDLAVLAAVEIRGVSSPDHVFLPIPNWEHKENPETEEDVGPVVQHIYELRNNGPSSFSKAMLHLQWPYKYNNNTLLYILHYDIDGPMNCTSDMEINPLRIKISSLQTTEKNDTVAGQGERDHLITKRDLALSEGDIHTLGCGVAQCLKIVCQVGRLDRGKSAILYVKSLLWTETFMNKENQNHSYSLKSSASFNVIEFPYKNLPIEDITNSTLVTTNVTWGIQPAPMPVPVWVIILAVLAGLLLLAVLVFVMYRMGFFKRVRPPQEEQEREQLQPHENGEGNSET
UniProt P06756, sequence (P05106 27-788, chain 2 of 2, further chain): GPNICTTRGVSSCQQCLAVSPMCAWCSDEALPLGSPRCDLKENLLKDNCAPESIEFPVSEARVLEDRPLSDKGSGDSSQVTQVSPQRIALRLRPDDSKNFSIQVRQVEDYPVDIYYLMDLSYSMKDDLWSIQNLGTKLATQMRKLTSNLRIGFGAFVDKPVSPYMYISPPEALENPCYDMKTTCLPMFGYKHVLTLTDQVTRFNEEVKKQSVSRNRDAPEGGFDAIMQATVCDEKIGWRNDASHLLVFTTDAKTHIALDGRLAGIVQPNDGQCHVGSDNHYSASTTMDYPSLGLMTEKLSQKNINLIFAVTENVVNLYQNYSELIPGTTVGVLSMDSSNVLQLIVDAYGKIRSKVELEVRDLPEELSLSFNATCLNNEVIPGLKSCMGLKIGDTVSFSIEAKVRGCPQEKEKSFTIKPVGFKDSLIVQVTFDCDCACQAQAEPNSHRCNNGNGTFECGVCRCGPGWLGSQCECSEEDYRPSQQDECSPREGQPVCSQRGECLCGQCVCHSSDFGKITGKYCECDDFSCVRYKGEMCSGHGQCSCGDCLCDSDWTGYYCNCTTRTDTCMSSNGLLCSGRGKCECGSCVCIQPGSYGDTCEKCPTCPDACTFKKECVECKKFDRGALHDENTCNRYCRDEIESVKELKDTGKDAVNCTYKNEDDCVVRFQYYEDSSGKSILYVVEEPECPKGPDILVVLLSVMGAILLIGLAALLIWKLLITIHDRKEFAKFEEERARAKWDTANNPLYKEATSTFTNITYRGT

In test [1], “RGD-human endostatin (from UniProt P39060 1572-1754)” returned an HUVEC attachment to coated wells (100% = gelatin-coated wells) of 80%, a direct binding of [125I]-RGD-endostatin to HUVEC (pmole per 10^6 cells) of 1.2 pmol and an increase of HUVEC attachment over native endostatin of 40%. Besides, the percent of cells attached (100% = gelatin-coated wells) in test [2] amounted to 60%.

As to “human endostatin (from UniProt P39060 1572-1754)”, the percent of cells attached (100% = gelatin-coated wells) in test [2] is 18%.

“human endostatin-RGD (from UniProt P39060 1572-1754)”: in test [1], the HUVEC attachment to coated wells (100% = gelatin-coated wells) is 80% and the increase of HUVEC attachment over native endostatin is 40%.
